Laboratory results from the RNAGym collection of RNA variant scans (doi:10.7554/elife.80360).

B1: HDV Ribozyme (parent)
chain: GGCCGGCAUGGUCCCAGCCUCCUCGCUGGCGCCGGCUGGGCAACAUUCCGAGGGGACCGUCCCCUCGGUAAUGGCGAAUGGGACCCA

Variants of: B1
Experiment: self-cleavage, relative activity (ratio to wild type); higher = more cleavage; co-transcriptional

Variant	self-cleavage
GGCCGGCAUGGUCCCAGCCUCCUCGCUGGCGCCGGCUGGGCAAGAUUCCGAGGGGACCGUCCUCUCGGUAAUGGCGAAUGGGACCCA [C44G C63U]	0.81
GGCCGGCAUGGUCCCAGCCUCCUCGCUGGCGCCGGCUGGGCAAGAUUCCGAGGGGACCGUCCCCUCGGUAAUGGCGAAUGAGACCCA [C44G G81A]	0.277
GGCCGGCAUGGUCCCAGCCUCUUCGCUGGCGCCGGCUGAGCAACAUUCCGAGGGGACCGUCCCCUCGGUAAUGGCGAAUGGGACCCA [C22U G39A]	0.185
GGCCGGCAUGGUCCCAGCCUCCUCGCUGGCGCCGGCUGGGCAACAGCCCGAGGGGACCGUCCCCUCGGUAAUGGCGAAUGGGACCCA [U46G U47C]	0.623
CGGCGGCAUGGUCCCAGCCUCCUCGCUGGCGCCGGCUGGGCAACAUUCCGAGGGGACCGUCCCCUCGGUAAUGGCGAAUGGGACCCA [G1C C3G]	0.443
GGCCGGCAUGGUCCCAGCCUCCUCGCUGGCGCCGGCUGGGCAACAUUCCGAGGCGACCGUCCCCUCGGUAAUGGGGAAUGGGACCCA [G54C C75G]	0.151
GGCCGGCAUGGUCCCAGUCUCCUCGCUGGCGCCGGCUGGGCAACAUUCCGAGGGGACCGUCCCCUCGGUAAUGGCGACUGGGACCCA [C18U A78C]	0.185
GGCCGGCAUGGUCCAAGCCUCCUCGCUGGCGCCGGCUGGGCAACAUUCCGAGGGGACCGUCCCCUCGGUAAUGGCGAAUGGGAGCCA [C15A C84G]	0.244
GGCCGGCAUGGUCCCAGCCUCCUGGCUGGCGCCGGCUGGGCAACAUUCCGAGGGGACCGUCCCCUCGGUAAUGGCGCAUGGGACCCA [C24G A77C]	0.0386
GGCCGGCAUGGUCCCAGCCUCCUCGCUGGCGCCGGCUGGGCAACAUUCCCAGGGGACCGUCCCCUCGGUAAUGGCGCAUGGGACCCA [G50C A77C]	0.302
GGCCGGCAUGGUCCCAGCCUCCUCGCUGGCCCCGGCUGGGCAACAUUCCGAGGGGACCGUCCCCUCGGUAAUGGCGAAUGGGAACCA [G31C C84A]	0.443
GGCCGGCAUGGUCACAGCCUCCUCGCUGGCGCCGGCUGGGCAAUAUUCCGAGGGGACCGUCCCCUCGGUAAUGGCGAAUGGGACCCA [C14A C44U]	0.166
GGCCGGCAUGGGCCCAGCCUCCUCGCUGGCGCCGGCUGGGCAACAUUCCGAGGGGACCGUCCCCUCGGUAAUGGCGAAUGGGAUCCA [U12G C84U]	0.692
GGCCGGCAUGGUCCCAGCCUCCUCGCUGGCGCCGGCCGGGCAACAUUCCGAGGCGACCGUCCCCUCGGUAAUGGCGAAUGGGACCCA [U37C G54C]	1.13
GGCCGGCAUGGUCCCAGCCUCCUCGCUGGCGCCGGCUGGGCUACAUUCCGAGGGGAGCGUCCCCUCGGUAAUGGCGAAUGGGACCCA [A42U C57G]	0.489
GGCCGGCCUGGUCCCAGCCUCCUCGCUGGCGCCGGCUGGGCAACAUUCCGAGGGGACCGUCCCCUCGAUAAUGGCGAAUGGGACCCA [A8C G68A]	0.554
GGCCGGCAUGGUCCCAGCCUCCUCGCUGGCGCCGGCUGGGCAACAUUCCGAGGGCACCGUCCCCUCGGUAACGGCGAAUGGGACCCA [G55C U72C]	0.798
GGCCGACAUGGUCCCAGCCUCCUCGCUGGCGCCGGCUGGGCAACAUUCCGAGGGGACCGUCCCCUCGGUAAUGGCGUAUGGGACCCA [G6A A77U]	0.18
GGCCGGCAUGGUCCCAGCCUCCUCGCUGGCUCCGGCUGGGCAACAUUCCGAGGGGACCGUCCCCUCGGUAAUAGCGAAUGGGACCCA [G31U G73A]	0.0627
GGCCGGCAUGGUCCCAGCCUCCUCGCUGGGGCCGGCUGGGCAACAUUCCGAGGGGACCGUCCCCUCGAUAAUGGCGAAUGGGACCCA [C30G G68A]	0.126
GGCCGGCAUGGUCCCAGCCUCCUCGCUGGCGCCGGCUGGGCAACAUUCCGAGGGGACCGUCCCCUCGGUAGUGGCGAAGGGGACCCA [A71G U79G]	0.256
GGCCGGCAUGGUCCCAGCCUCCUGGCCGGCGCCGGCUGGGCAACAUUCCGAGGGGACCGUCCCCUCGGUAAUGGCGAAUGGGACCCA [C24G U27C]	0.0791

Variant	self-cleavage
GGCCGGCAUGGUCCCAGCCUCCUCGCUGGCGCCGGCUAGGCAACAUUCCGAGGGGACCGUCCCCUCGGUAAUGGCCAAUGGGACCCA [G38A G76C]	0.0767
GGCCGGCAUGGUCCCAGCCUCCUCGCUGGCGCCGGCUGGGCAACAUUCCGAGGGGACCGUGCCCUCGGUAAUGGCGAAUGGAACCCA [C61G G82A]	0.284
GGCCGGCAUGGUCCCAGCCUCCUCGCUGGCGCCGGCUGAGCAACAUUCCGAGGGGACCGUCCCCUCGGUAAUGGCGAUUGGGACCCA [G39A A78U]	0.201
GGCCGGCAUGGUCCCAGCCUCCUCGCUGGCGCCGGCUGGGCAACAUCCCGAGGGGACCGUCCCCUCGGUAAUGGCGACUGGGACCCA [U47C A78C]	0.0898
GGCCGGCAUGGUCCCAGCCUCCUCGCUGGCGCCGACUGGGCAACAUUCCGAGGGGACCGUCCCCUCGGUAAUGGCGAAUGGGACGCA [G35A C85G]	0.643
CGCCGGCAUGGUCCCAGCCUCCUCGCUGGCGCCGGCUGCGCAACAUUCCGAGGGGACCGUCCCCUCGGUAAUGGCGAAUGGGACCCA [G1C G39C]	0.0519
GGCCGGCAUGGUCCCAGCCUCCUCGCUGGCGCCGGCUGGGCAACAUUCCGAGGGGACCGUCCCCUCGGUUAUGGCGAAUGGGACGCA [A70U C85G]	0.724
GGCCGGCAUGGUCCCAGCCUCCUCGCUGGCGCCGGCUGGGCAACAUUCCGAGGGGACCGUCCCCUCGGUAGUGGCGAAUGGGACACA [A71G C85A]	0.674
GGCCGGCAUGGUCCCGGCCUCCUCGCUGGCGCCGGCUGGGCAACAUUCCGAGGGCACCGUCCCCUCGGUAAUGGCGAAUGGGACCCA [A16G G55C]	1.2
GGCCGCCAUGGUUCCAGCCUCCUCGCUGGCGCCGGCUGGGCAACAUUCCGAGGGGACCGUCCCCUCGGUAAUGGCGAAUGGGACCCA [G6C C13U]	0.0831
GGCCGGCAUGGUCCCAGCCUCGUCGCUGGCGCCGGCUGGGCAACAUUCCGAGGGGACGGUCCCCUCGGUAAUGGCGAAUGGGACCCA [C22G C58G]	0
GGCCGGCAUGGUCCCAGCAUCCUCGCUGGCGCCGGCUGGGCACCAUUCCGAGGGGACCGUCCCCUCGGUAAUGGCGAAUGGGACCCA [C19A A43C]	0.0665
GGCCGGCAUGGUCCCAGCCUCCUCGCUUGCGCCGGCUGGGCAACAUUCCGAGGAGACCGUCCCCUCGGUAAUGGCGAAUGGGACCCA [G28U G54A]	0.115
GACCGGCAUGGUCCCAGCCUCCUCGCUGGCGCCGGCUGGGCAACAUUCCGAGGGGACCGUCCCCUCGGUAAUGGCGAAUGUGACCCA [G2A G81U]	0.0346
GGCCGGUAUGGUCCCAGCCUCCUCGCUGGCGCCGGCUGGGCAACAUUCCGAGGGGACCGUCCCCUCGCUAAUGGCGAAUGGGACCCA [C7U G68C]	0.704
GGCCGGAAUGGUCCCAGCCUCCUCGCUGGCGCCGGCUGGGCAACAUUCCGAGGGGACUGUCCCCUCGGUAAUGGCGAAUGGGACCCA [C7A C58U]	0.731
GGCCGGCAUGGUCCGAGCCUCCUCGCUGGCGCCGGCUGGGCAACAUUCCGAGGGGACCGUCCCCUCGAUAAUGGCGAAUGGGACCCA [C15G G68A]	0.525
GGCCGGCAUGGUCCCAGUCUCCUCGCUGGCGCCGGCUGGGCAACAUUCCGAGUGGACCGUCCCCUCGGUAAUGGCGAAUGGGACCCA [C18U G53U]	0.918
GGCCGGCAUGGUCCAAGCCUCCUCGCUGGCGCCGGCUGGGCAACAUUCCGAGGGGACCGUCCCCUCGGUAACGGCGAAUGGGACCCA [C15A U72C]	0.208
GGCCGGCAUUGUCCCAGCCUCCUCGCUGGCGCCGGCUGGGCAACAUUCCGGGGGGACCGUCCCCUCGGUAAUGGCGAAUGGGACCCA [G10U A51G]	0.707
GGCCGGCAUGGUCCCAGCCUCCUCGUUGGCGCCGCCUGGGCAACAUUCCGAGGGGACCGUCCCCUCGGUAAUGGCGAAUGGGACCCA [C26U G35C]	0.288
GGCCGGCAUGGUCCCAGCCUCCUCGCUGGCGCCGGCUGGGCAACAUUCCGAAGGGACCGUCCCCUCGGUAAUGGCGAAUCGGACCCA [G52A G80C]	0.272

Variant	self-cleavage
GGCAGGCAUGGUCCCAGCCUCCUCGCUGGCGCCGGCUGGGCAACAUUCCGAGGGGAUCGUCCCCUCGGUAAUGGCGAAUGGGACCCA [C4A C57U]	0.237
GGCCGGCAUCGUCCCAGCGUCCUCGCUGGCGCCGGCUGGGCAACAUUCCGAGGGGACCGUCCCCUCGGUAAUGGCGAAUGGGACCCA [G10C C19G]	0.0811
GGCCGGCAUGGUCCCAGCCUACUCGCUGGCGCCGGCUGGGCAACAUUCCGAGGGGACCGUCCCUUCGGUAAUGGCGAAUGGGACCCA [C21A C64U]	0.0852
GGCCGGCAUGGUCCCAGCCUCCUCGCUGGCGCCGGUUGGGCAACAUUCCGAAGGGACCGUCCCCUCGGUAAUGGCGAAUGGGACCCA [C36U G52A]	0.785
GGCCGGCAUGGUCCCAGCCUACUCGCUGGCGCCGGCUGGGCAACAUUCCGAGGGGACCGUCGCCUCGGUAAUGGCGAAUGGGACCCA [C21A C62G]	0.138
GGCCGGCAUGGUCCCAGCCUCCUCGGUGGCGCCGGCUGGGCAACAUUCUGAGGGGACCGUCCCCUCGGUAAUGGCGAAUGGGACCCA [C26G C49U]	0.935
GGCCGACAUGGUCCCAGCCUCCUCCCUGGCGCCGGCUGGGCAACAUUCCGAGGGGACCGUCCCCUCGGUAAUGGCGAAUGGGACCCA [G6A G25C]	0.0462
GGCCGGCAUGGUCCCAGCCUCCUCGCUGGCGCCGGCUGGGCAACAUUACGAGGGGACCGUCCCCUCUGUAAUGGCGAAUGGGACCCA [C48A G67U]	1.03
GGCCGGCAUGGUCCCAGCCUCCUCGCUGGCGCCGGCUGGGCAACAUUCCGAGGGGACCGUCCCCUGGGUAAUGGCGACUGGGACCCA [C66G A78C]	0.148
GGCCGGCAUGGUCCCAGCCUCCUUGCUGGCGCCGGCUGGGCAACAUUCCUAGGGGACCGUCCCCUCGGUAAUGGCGAAUGGGACCCA [C24U G50U]	0.585
GGCCGGCAUGGUCUCAGCCUCCUCGCUGGCGCCGGCUGGGCAACAUUCCGAGGGGACCGUCCCCUCGGUAAUGGCGAAAGGGACCCA [C14U U79A]	1.02
GGCCGGCAUGGUCCCAGCCUCCUCGCUGGCGCCGGCUGGGCAACAUCCCGAGGGGACCGUCCCCUCGGUAAUGGCGAAUAGGACCCA [U47C G80A]	0.215
GGCCGGCAGGGUCCCAGCCUCCUCGCUGGGGCCGGCUGGGCAACAUUCCGAGGGGACCGUCCCCUCGGUAAUGGCGAAUGGGACCCA [U9G C30G]	0.145
GGCCGGCAUGGUCCCAGCCUCCUCGCUGGCGCCGGCUGGGCAACAUUCCGAGGGGACCGUCCCCUAGGUAAUGGUGAAUGGGACCCA [C66A C75U]	0.292
GGCCGGCAUGGUCCCAGCCGCCUCGCUGGCGCCGGCUGGGCAACAUUCCGAGGGGACCGUCCCCUCGGUAAUGGCGAACGGGACCCA [U20G U79C]	0.0773
GGCCGGCAUGGUCCCAGCCUCCUCGCUGGCGCCGGCUGGGCAACAUUCAGAGGGGACCUUCCCCUCGGUAAUGGCGAAUGGGACCCA [C49A G59U]	0.945
GGCCGGCAUCGUCCCAGCCUCCUCGCUGGCGCCGGCUGGGUAACAUUCCGAGGGGACCGUCCCCUCGGUAAUGGCGAAUGGGACCCA [G10C C41U]	0.692
GGCCGGCAUGGUCCCAGCCUCCUCGCUGGCGCCGCCUGGGCAACAUUCCGAGGGGACCGUCCCCCCGGUAAUGGCGAAUGGGACCCA [G35C U65C]	0.219
GGCCGGCAUGGUCCCAGCCUCCUCGCUGGCGCCGGCUGGGCAACAUUCCGAGGGGACCGUCCCCGCGGUAACGGCGAAUGGGACCCA [U65G U72C]	0.415
GGCCGGCAUCGUCCCAGCCUCCUCGCUGACGCCGGCUGGGCAACAUUCCGAGGGGACCGUCCCCUCGGUAAUGGCGAAUGGGACCCA [G10C G29A]	0.032
